# Molecular target: soy bean agglutinin conjugated to HRP (soy bean), P05046
# Assay: ELISA; soy bean agglutinin conjugated to HRP exposed to serial dilutions of PFA; colorimetric signal with TMB
# Sequence of soy bean agglutinin conjugated to HRP (soy bean), P05046 (P05046 33-285): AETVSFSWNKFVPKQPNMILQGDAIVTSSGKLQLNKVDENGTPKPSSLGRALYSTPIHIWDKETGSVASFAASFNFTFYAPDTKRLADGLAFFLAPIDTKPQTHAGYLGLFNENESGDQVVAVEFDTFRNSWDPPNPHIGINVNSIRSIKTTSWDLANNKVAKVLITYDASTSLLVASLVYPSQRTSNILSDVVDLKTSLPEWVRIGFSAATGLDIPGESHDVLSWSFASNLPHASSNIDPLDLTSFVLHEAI
binder,measurement,value
"Pseudomonas fluorescens agglutinin (PFA) (natural protein, modifications not checked) MSKYAVANQWGGSSAPWHPGGTWVLGARDNQNVVAIEIKSGDGGKSFTGTMTYAGEGPIGFKAQRTGQNQYNVENQWGGNDAPWHPGGKWVIGGRDNQNVIALSVTSSDGGKNLSGTNTYANEGPIGFRGQIEVSHPQAPF",Kd,4 nM

# — article PMC7423246, “A Peptide–Lectin Fusion Strategy for Developing a Glycan Probe for Use in Various Assay Formats” (Chemosensors (Basel, Switzerland), 2019)
